A short description of the data set: soluble on expression in E. coli; label from the status in PepcDB or PDB records.
For the sequence “SLTQKEQEEKLYMMLPVFNRVFGNAPPNTMTEKFSDLLQFTTQVSRLMVTEIRRRASNKSTEAASRAIVQFLEINQSEEASRGWMLLTTINLLASSGQKTVDCMTTMSVPSTLVKCLYLFFDLPHVPEAGGGAQNELPLAERRGLLQKAFVQILVKLCSFVSPAEELAQKDDLQLLFSAITSWCPPYNLPWRKSAGEVLMTISRHGLSVNVVKYIHEKECLSTCVQNMQQSDDLSPLEIVEMFAGLSCFLKDSSDVSQTLLDDFRIWQGYNFLCDLLLRLEQGKEAECRDALKDLVSLVTSLTTYGVSELKPAGVTTGAPFLLPGFAVPQPAGKGHSVRNIQAFAVLQNAFLKAKTNFLAQIILDAITNIYMADNANYFILESQHTLSQFAEKISKLPEVQNKYFEMLEFVVFSLNYIPCKELISVSILLKSSSSYHCSIIAMKTLLKFTRHDYIFKDVFREVGLLEVMVNLLHKYAALLKDPAQALN”, the “soluble on expression in E. coli” value is given as “soluble”. The result for “SLTTVSVNESLLTPLNLEIDPNAQCVKQEEKEQIKSLNSRFAAFIDKVRFLEQQNKLLETKLQFYQNRECCQSNMEPLFEGYIETLRREAECVEADSGRLASELNHVQEVLEGYKKKYEEEVSLRATAENEFVALKKDVDCAYLRKSDLEANVEALIQEIDFLRRLYEEEIRILQSHISDTSVVVKLDNSRDLNMDCIIAEIKAQYDDIVTRSRAEAESWYRSKCEEMKATVIRHGETLRRTKEEINELNRMIQRLTAEVENAKCQNSKLEAAVAQSEQQGEAALSDARCKLAELEGALQKAKQDMACLIREYQEVMNSKLGLDIEIATYRRLLEGEEQRLCEGIGAVNVCVSSSRGGVVCGDLCVSGSRPVTGSVCSAPCNGNVAVSTGLCAPCGQLNTTCGGGSCGVGSCGISSLGVGSCGSSCRKC” reads “soluble”; that for “SMEEKLKKTNIIFVVGGPGSGKGTQCEKIVQKYGYTHLSTGDLLRSEVSSGSARGKKLSEIMEKGQLVPLETVLDMLRDAMVAKVNTSKGFLIDGYPREVQQGEEFERRIGQPTLLLYVDAGPETMTQRLLKRGETSGRVDDNEETIKKRLETYYKATEPVIAFYEKRGIVRKVNAEGSVDSVFSQVCTHLDALLN”, “soluble”.

As for “SMQGPRTRARLGANEVLLVVGGFGSQQSPIDVVEKYDPKTQEWSFLPSITRKRRYVASVSLHDRIYVIGGYDGRSRLSSVECLDYTADEDGVWYSVAPMNVRRGLAGATTLGDMIYVSGGFDGSRRHTSMERYDPNIDQWSMLGDMQTAREGAGLVVASGVIYCLGGYDGLNILNSVEKYDPHTGHWTNVTPMATKRSGAGVALLNDHIYVVGGFDGTAHLSSVEAYNIRTDSWTTVTSMTTPRCYVGATVLRGRLYAIAGYDGNSLLSSIECYDPIIDSWEVVTSMGTQRCDAGVCVLRE”, the “soluble on expression in E. coli” value is on record as “soluble”. The result for “SMRYTVSNLSMQTHAARFKTFFNWPSSVLVNPEQLASAGFYYVGNSDDVKCFCCDGGLRCWESGDDPWVQHAKWFPRCEYLIRIKGQEFIRQVQAS” reads “soluble”.

As for “SNAGQLCCLREDGERCGRAAGNASFSKRIQKSISQKKVKIELDKSARHLYICDYHKNLIQSVRNRRKRKGS”, the “soluble on expression in E. coli” value is “soluble”. Turning to “SNAMILIDGKSLSKDLKERLATQVQEYKHHTAITPKLVAIIVGNDPASKTYVASKEKACAQVGIDSQVITLPEHTTESELLELIDQLNNDSSVHAILVQLPLPAHINKNNVIYSIKPEKDVDGFHPTNVGRLQLRDKKCLESCTPKGIMTMLREYGIKTEGAYAVVVGASNVVGKPVSQLLLNAKATVTTCHRFTTDLKSHTTKADILIVAVGKPNFITADMVKEGAVVIDVGINHVDGKIVGDVDFAAVKDKVAAITPVPGGVGPMTITELLYNTFQCAQELNR”, the “soluble on expression in E. coli” value is reported as “soluble”. The result for “SNAMKKTLILGATPETNRYAYLAAERLKSHGHEFIPVGRKKGEVLGKTIINERPVIEGVDTVTLYINPQNQLSEYNYILSLKPKRVIFNPGTENEELEEILSENGIEPVIGCTLVMLSAGTF” reads “soluble”; that for “SNAMPKRSKEDTEITIQKIMDAVVDQLLRLGYDKMSYTTLSQQTGVSRTGISHHFPKKTDFTAALDGRIFKMFIEHLEFEKGLDAFSQSWIKALEDSEFLAILRLLFHHIVTSESAHEFAANGIDRLYKMVESQFGSGGDKELEWLIGRSLIQMSK”, “soluble”; that for “SNAMTKIYFAGPLFSQADLRYNAYLVEQIRQLDKTIDLYLPQENAAINDKSAYADSKMIALADTENVLASDLLVALLDGPTIDAGVASEIGVAYAKGIPVVALYTDSRQQGADNHQKLDALNEIAENQFHYLNLYTVGLIKLNGRVVSSEEDLLEEIKQRLS”, “soluble”. The result for “SNATAYIIVGLTPKDAEKLQQYGARVASTLAKYSGEVLVKGSVEQLHGKFEHKAQVILEFPSREDAYNWYHSEEYQALISTRDLGMDSQFQLIG” reads “soluble”; that for “SNAVFGVKEWECEVLSNKNVSTFIKEFVVKLPEGETMNFKSGSYAQIKIPKYNIRYADYDIQDRFRGDWDKMDAWSLTCKNEEETVRAYSMANYPAEGNIITLNVRIATPPFDRAANKWKAGIKPGISSSYIFSLKPGDKVMMSGPYGDFHIQDTDAEMLYIGGGAGMAPLRAQILHLFRTLKTGRKVSYWYGARSKNEIFYEEDFREIEREFPNFKFHIALSDPQPEDNWTGYVGFIHQVIYDNYLKDHDAPEDIEYYMCGPGPMANAVKGMLENLGVPRNMLFFDDFG”, “soluble”. Next, “SNMEVDVFPDLNAPTVVVMTEATGMAPEEVERLVTFPVETAVNGATDVRRVRSSSTTGFSIVWVEFDWGTDIYRARQIVSEKLAVVGADLPDNVGKPTLGPQSSILGEVMIIGLTADSTSLQDLRTLADWTIRPRLLSIGGVAQVTVLGGDIKEYQILLNPERMKHYGITLAEVRAAVDQMNRNASGGVLYEYGNEYIICGLLSTNDAAALGKTLVKSLDDIPIMLESVAEVRVGNKAPKLGLASERGQSAVLVTITKQPATSTLELTERLDRSLADLQKALPSDVKVSTDIFRQERFIENSISNVRK”: “not soluble”.

For “SNPQIRNPMKAMYPGTFYFQFKNLWEANDRDETWLCFTVEGIKRRSVVSWKTGVFRNQVDSETHCHAERCFLSWFCDDILSPNTKYQVTWYTSWSPCPDCAGEVAEFLARHSNVNLTIFTARLYYFQYPCYQEGLRSLSQEGVAVEIMDYEDFKYCWENFVYNDNEPFKPWKGLKTNFRLLKRRLRESLQ”, the “soluble on expression in E. coli” value is “soluble”. With “SNPSSSGGTTKRFRTKFTAEQKEKMLAFAERLGWRIQKHDDVAVEQFCAETGVRRQVLKIWMHNNKN”, the “soluble on expression in E. coli” value is on record as “soluble”. As for “SNRHLCKECFKKDIERRAKKVLGKDIIRNNVKIGIGISGGKDSLVMAYILKELFKHIPNAKLICFFVDEGIKGFRNIAEKYVKEFCKEYNLDLKIIKFEDEIGYTLDEIVKNDYLSKLNIGKPCSFCGVVRRYLLNKHALKEGCDYLAIGHNLDDFCQTILMNYVEGNIKNIIQFGKEFEGGGFVKRIKPLKLIPEEEVKLYAEINNIKYQREPC”, the “soluble on expression in E. coli” value is given as “not soluble”. Turning to “SPGRSSTSSGSTRYISFSGIESALSSLKNFQSCISSGMDTVSSVALDLVETQTEVSSEYSMDKAMVEFAKMDRELSHYVKAVQSTINHVKEERPEKVPDLKLLVEKKFLALQDKNSDADFKENEKFVQFKQQLRELKKQYGIHADRENDLTEGVDEDMIVTQSQTNFICPITQLEMKKPVKNKMCGHTYEEEAIVRMIESKHKRKKKACCPKIGCSHTDMRMSDLIPDEALRRAIESHNKKKKRHSE”, the “soluble on expression in E. coli” value was “soluble”. Regarding “SPKKAKPTGSGKEEGPAPCKQMKLEAAGGPSALNFDSPSSLFESLISPIKTETFFKEFWEQKPLLIQRDDPALATYYGSLFKLTDLKSLCSRGMYYGRDVNVCRCVNGKKKVLNKDGKAHFLQLRKDFDQKRATIQFHQPQRFKDELWRIQEKLECYFGSLVGSNVYITPAGSQGLPPHYDDVEVFILQLEGEKHWRLYHPTVPLAREYSVEAEERIGRPVHEFMLKPGDLLYFPRGTIHQADTPAGLAHSTHVTISTYQNNSWGDFLLDTISGLVFDTAKEDVELRTGIPRQLLLQVESTTVATRRLSGFLRTLADRLEGTKELLSSDMKKDFIMHRLPPYSAGDGAELSTPGGKLPRLDSVVRLQFKDHIVLTVLPDQDQSDETQEKMVYIYHSLKNSRETHMMGNEEETEFHGLRFPLSHLDALKQIWNSPAISVKDLKLTTDEEKESLVLSLWTECLIQVV”, the “soluble on expression in E. coli” value is on record as “soluble”. Next, “SPLDRDPAFRVITVTKETGLGLKILGGINRNEGPLVYIHEVIPGGDCYKDGRLKPGDQLVSINKESMIGVSFEEAKSIITRAKLRSESPWEIAFIR”: “soluble”; “SPLELELCPGRWVGGQHPCFIIAEIGQNHQGDLDVAKRMIRMAKECGADCAKFQKSELEFKFNRKALDRPYTSKHSWGKTYGEHKRHLEFSHDQYRELQRYAEEVGIFFTASGMDEMAVEFLHELNVPFFKVGSGDTNNFPYLEKTAKKGRPMVISSGMQSMDTMKQVYQIVKPLNPNFCFLQCTSAYPLQPEDVNLRVISEYQKLFPDIPIGYSGHETGIAISVAAVALGAKVLERHITLDKTWKGSDHSASLEPGELAELVRSVRLVERALGSPTKQLLPCEMACNEKLGKSVVAKVKIPEGTILTMDMLTVKVGEPKGYPPEDIFNLVGKKVLVTVEEDDTIMEELVDNHGKKIKS”: “soluble”.

Turning to “SPSCSPQQASKAEENGSNSFMHSMVPQLEWQMETTQSLVDSYVAIVNKTVWDLMVGLTPKTIMHLMINNNKEFIFSELLANLYLHGDKNMLMEESAEQAQRS”, the “soluble on expression in E. coli” value is listed as “soluble”. The result for “SPWSQDRVEHLYEQVAAENSVDLLKKGQFQGTPDGSSVVFIDDIKDSTLSNVFVAQMRPRDSVLPSVMFSSSGEVKELSDGRQVITMQEGTRYEGVPTRVEYMITKFDEYEGVIGQREVKQKGRDWEAYPTADLIGHPDPEAQAELQWR” reads “not soluble”; that for “SQGRKPSSELISYQRLHPNEFEIKNLGVLPQSHVIRMERVRFADDIPVAYEITSIPEKIIRGFKESEITEHFFKTLTDNGYEIGKSQQTISASLANSSLAKHLKVKTGDALLSLTQISFLQDGQAFEYVRSYYVGDRFE”, “not soluble”; that for “SQIFASDGKTQLARIVPPDGNRTEVPIDKIPEVTRNAVLAAEDREFYTNSGFSFTGFGRAILGQLTGDASAGGGSTITQQYVKNMVVGNDYSYMRKAKELVYSVKMANEWSKDEVLGAYLNTIYFGRNAYGIDAAAHAYFGVPASELNVGQSAMLAATIQRPSQLDPWSNR”, “not soluble”. Turning to “SQRRGQLSRRLVNSADRDPSDENSLSRAPAPACTSRGTHVVETTSLKRHSKVLRSQDASGTAESVNSQTPDDEVDHTLWTLVREVSDAEAAFWALRNDSRLLGFVLRSQLLALVHDDSSVTDFLEAAQQPTDVGDVQAEFILCWVPVPGGPAILWRADYQRLIEEQVARRLSELEDPARKAALWGTTREQVERDTHIRAADGSCWLRTLPCPPSVIRALTQGQKALVQQVKRMGRYGRLPLHRAELLRLSRTCFSARFHILDAVGCGTLALDAQNTLSKEPYLCLPEVRTTNIVDSGEIGF”, the “soluble on expression in E. coli” value is “soluble”. With “SREEMSLGCQEAFEIFKRDHADSVTIDDNKQILKQRFSEAKALGESINEARSKIGHLKEEITQRHIQQVALGISENMAVPLMPDQQEEKLRSQLEEEKRRYKTMFTRLKALKVEIEHLQLLMDKAKVKLQKEFEVWWAEEATNLQVNSPAVNSLDHTKPFLQTSDSQHEWSQLLSNKSSGGWEVQDQGTGRFDVCDVNARKILPSPCPSPHSQKQSSTSTPLEDSIPKRPVSSIPLTGDSQTDSDIIAFIKARQSILQKQCLGSN”, the “soluble on expression in E. coli” value is recorded as “soluble”. The result for “SRQHTSISDYDVMILDLTDVPMLDVTVGLALENAIKDALDARCEVYLLCPNQRTREQLEKFHVIDLVPDNNMYQFRYEALNAAVAHVESDQYQRMTA” reads “not soluble”.

These data come from the DeepSol protein solubility set.
